Substrate: NC(=O)c1ccc[n+]([C@@H]2O[C@H](COP(=O)(O)OP(=O)(O)OC[C@H]3O[C@@H](n4cnc5c(N)ncnc54)[C@H](OP(=O)(O)O)[C@@H]3O)[C@@H](O)[C@H]2O)c1
Assay: purified protein

B1: Glucose-6-phosphate dehydrogenase (camel liver G6PD) (Camelus dromedarius) (protein)
chain: AEQVALSRNQVCGILREELYQGDAFHQSDTHIFIIMGASGDLAKKKIYPTIWWLFRDGLLPEDTYIVGYARSRLTVADIRKQSEPFFKATPEEKPKLEEFFARNSYVAGQYDDAASYERLNSHMNALHQGSQANRLFYLALPPTVYEAVTKNIRETCMSQTGWNRIIVEKPFGRDLQSSNQLSNHISSLFREDQIYRIDHYLGKEMVQNLMVLRFANRIFGPIWNRDNIACVILTFKEPFGTEGRGGYFDEFGIIRDVMQNHLLQMLCLVAMEKPASTDSDDVRDEKVKVLKCISEVQANNVVLGQYVGNPNGEGEATKGYLDDPTVPRGSITATFAAVVLYVENERWDGVPFILRCGKALNERKAEVRLQFRDVAGDIFQQQCKRNEVVIRVQPNEAVYTKMMTKKPGMFFNPEESELDLTYGNRYKNVKLPDAYERLILDVFCGSQMHFVRSDELREAWRIFTPLLHKIEREKLQPIPYVYGSRGPAEADELMKRVGFQYEGTYKWVNPHKL
  Km: 81 µM
